This note sets out measurements from article PMC8379176 (Nature Communications, 2021).

For this series, the system named is ghrelin receptor (WT or mutants). As to the kind of experiment: Cell-surface expression assay (FACS). In kind it is cell-based, human. On the procedure:
Cell-surface expression for each mutant was monitored by a fluorescence-activated cell sorting (FACS) assay. In brief, the expressed cells were incubated with mouse anti-HA-FITC antibody (Sigma) at a dilution of 1:200 for 20 min at 4 °C, and then a 9-fold excess of PBS was added to cells. […] The FACS data were analyzed by BD Accuri C6 software 1.0.264.21. The gating strategy and calculation method of expression are shown in Supplementary Fig. 11.
Supplementary Figure 11 | Gating strategy of cell surface expression assay. Circle a gate P1 in the scatter map (black circle). The cells shown in the histogram map are all the cells in the gate P1 in the scatter map. Fluorescence signal intensity (FITC) is presented by […]. With the Blank sample as the reference value of background fluorescence signal (a), the fluorescence signal histogram map is divided into two regions. The left region represents the negative cell community (FITC-), while the right region represents the positive cell community (FITC+). The expression level of cell surface wild-type (WT) ghrelin receptor (b) can be calculated as follows:
(M(FITC+)-M(FITC-))×(FITC+% Parent). M, mean fluorescence intensity. The expression level of the ghrelin receptor mutant is calculated similarly to WT receptor and then is normalized with the WT to calculate the relative expression value. […]

B1: WT (protein, UniProt Q92847 1-366, looked up)
Growth hormone secretagogue …: MWNATPSEEPGFNLTLADLDWDASPGNDSLGDELLQLFPAPLLAGVTATCVALFVVGIAGNLLTMLVVSRFRELRTTTNLYLSSMAFSDLLIFLCMPLDLVRLWQYRPWNFGDLLCKLFQFVSESCTYATVLTITALSVERYFAICFPLRAKVVVTKGRVKLVIFVIWAVAFCSAGPIFVLVGVEHENGTDPWDTNECRPTEFAVRSGLLTVMVWVSSIFFFLPVFCLTVLYSLIGRKLWRRRRGDAVVGASLRDQNHKQTVKMLAVVVFAFILCWLPFHVGRYLFSKSFEPGSLEIAQISQYCNLVSFVLFYLSAAINPILYNIMSKKYRVAVFRLLGFEPFSQRKLSTLKDESSRAWTESSINT
Consider B1, for which the Cell-surface expression is given as 98.69% (replicate 1); 96.95% (replicate 2); 107.34% (replicate 3); 98.90% (replicate 4); 98.13% (replicate 5).

B2: L1032.64A (protein)
chain: MWNATPSEEPGFNLTLADLDWDASPGNDSLGDELLQLFPAPLLAGVTATCVALFVVGIAGNLLTMLVVSRFRELRTTTNLYLSSMAFSDLLIFLCMPLDLVRAWQYRPWNFGDLLCKLFQFVSESCTYATVLTITALSVERYFAICFPLRAKVVVTKGRVKLVIFVIWAVAFCSAGPIFVLVGVEHENGTDPWDTNECRPTEFAVRSGLLTVMVWVSSIFFFLPVFCLTVLYSLIGRKLWRRRRGDAVVGASLRDQNHKQTVKMLAVVVFAFILCWLPFHVGRYLFSKSFEPGSLEIAQISQYCNLVSFVLFYLSAAINPILYNIMSKKYRVAVFRLLGFEPFSQRKLSTLKDESSRAWTESSINT
modifications: SNAP tag labelled with SNAP-Lumi4-Tb; left off: SNAP, N-terminal, kept
Consider B2, for which the Cell-surface expression worked out at 102.32% (replicate 1); 103.70% (replicate 2); 96.41% (replicate 3); 91.52% (replicate 4); 101.60% (replicate 5).

B3: R1022.63A (protein)
chain: MWNATPSEEPGFNLTLADLDWDASPGNDSLGDELLQLFPAPLLAGVTATCVALFVVGIAGNLLTMLVVSRFRELRTTTNLYLSSMAFSDLLIFLCMPLDLVALWQYRPWNFGDLLCKLFQFVSESCTYATVLTITALSVERYFAICFPLRAKVVVTKGRVKLVIFVIWAVAFCSAGPIFVLVGVEHENGTDPWDTNECRPTEFAVRSGLLTVMVWVSSIFFFLPVFCLTVLYSLIGRKLWRRRRGDAVVGASLRDQNHKQTVKMLAVVVFAFILCWLPFHVGRYLFSKSFEPGSLEIAQISQYCNLVSFVLFYLSAAINPILYNIMSKKYRVAVFRLLGFEPFSQRKLSTLKDESSRAWTESSINT
modifications: SNAP tag labelled with SNAP-Lumi4-Tb; left off: SNAP, N-terminal, kept
With B3, the Cell-surface expression by setting is: (replicate 1) 101.47%; (replicate 2) 87.96%; (replicate 3) 94.26%; (replicate 4) 99.21%; (replicate 5) 100.61%.

B4: F38N-termA (protein)
chain: MWNATPSEEPGFNLTLADLDWDASPGNDSLGDELLQLAPAPLLAGVTATCVALFVVGIAGNLLTMLVVSRFRELRTTTNLYLSSMAFSDLLIFLCMPLDLVRLWQYRPWNFGDLLCKLFQFVSESCTYATVLTITALSVERYFAICFPLRAKVVVTKGRVKLVIFVIWAVAFCSAGPIFVLVGVEHENGTDPWDTNECRPTEFAVRSGLLTVMVWVSSIFFFLPVFCLTVLYSLIGRKLWRRRRGDAVVGASLRDQNHKQTVKMLAVVVFAFILCWLPFHVGRYLFSKSFEPGSLEIAQISQYCNLVSFVLFYLSAAINPILYNIMSKKYRVAVFRLLGFEPFSQRKLSTLKDESSRAWTESSINT
modifications: SNAP tag labelled with SNAP-Lumi4-Tb; left off: SNAP, N-terminal, kept
For B4, the Cell-surface expression is 92.98% (replicate 1); 95.22% (replicate 2); 93.15% (replicate 3); 94.06% (replicate 4); 92.77% (replicate 5).

B5: L37N-termA (protein)
chain: MWNATPSEEPGFNLTLADLDWDASPGNDSLGDELLQAFPAPLLAGVTATCVALFVVGIAGNLLTMLVVSRFRELRTTTNLYLSSMAFSDLLIFLCMPLDLVRLWQYRPWNFGDLLCKLFQFVSESCTYATVLTITALSVERYFAICFPLRAKVVVTKGRVKLVIFVIWAVAFCSAGPIFVLVGVEHENGTDPWDTNECRPTEFAVRSGLLTVMVWVSSIFFFLPVFCLTVLYSLIGRKLWRRRRGDAVVGASLRDQNHKQTVKMLAVVVFAFILCWLPFHVGRYLFSKSFEPGSLEIAQISQYCNLVSFVLFYLSAAINPILYNIMSKKYRVAVFRLLGFEPFSQRKLSTLKDESSRAWTESSINT
modifications: SNAP tag labelled with SNAP-Lumi4-Tb; left off: SNAP, N-terminal, kept
As to B5, the Cell-surface expression by setting is: (replicate 1) 100.75%; (replicate 2) 98.96%; (replicate 3) 98.94%; (replicate 4) 96.06%; (replicate 5) 97.45%.

B6: D992.60A (protein)
chain: MWNATPSEEPGFNLTLADLDWDASPGNDSLGDELLQLFPAPLLAGVTATCVALFVVGIAGNLLTMLVVSRFRELRTTTNLYLSSMAFSDLLIFLCMPLALVRLWQYRPWNFGDLLCKLFQFVSESCTYATVLTITALSVERYFAICFPLRAKVVVTKGRVKLVIFVIWAVAFCSAGPIFVLVGVEHENGTDPWDTNECRPTEFAVRSGLLTVMVWVSSIFFFLPVFCLTVLYSLIGRKLWRRRRGDAVVGASLRDQNHKQTVKMLAVVVFAFILCWLPFHVGRYLFSKSFEPGSLEIAQISQYCNLVSFVLFYLSAAINPILYNIMSKKYRVAVFRLLGFEPFSQRKLSTLKDESSRAWTESSINT
modifications: SNAP tag labelled with SNAP-Lumi4-Tb; left off: SNAP, N-terminal, kept
Regarding B6, the Cell-surface expression is 101.25% (replicate 1); 96.41% (replicate 2); 90.24% (replicate 3); 92.75% (replicate 4); 94.78% (replicate 5).

B7: E1243.33A (protein)
chain: MWNATPSEEPGFNLTLADLDWDASPGNDSLGDELLQLFPAPLLAGVTATCVALFVVGIAGNLLTMLVVSRFRELRTTTNLYLSSMAFSDLLIFLCMPLDLVRLWQYRPWNFGDLLCKLFQFVSASCTYATVLTITALSVERYFAICFPLRAKVVVTKGRVKLVIFVIWAVAFCSAGPIFVLVGVEHENGTDPWDTNECRPTEFAVRSGLLTVMVWVSSIFFFLPVFCLTVLYSLIGRKLWRRRRGDAVVGASLRDQNHKQTVKMLAVVVFAFILCWLPFHVGRYLFSKSFEPGSLEIAQISQYCNLVSFVLFYLSAAINPILYNIMSKKYRVAVFRLLGFEPFSQRKLSTLKDESSRAWTESSINT
modifications: SNAP tag labelled with SNAP-Lumi4-Tb; left off: SNAP, N-terminal, kept
Regarding B7, the Cell-surface expression is, setting by setting: (replicate 1) 93.73%; (replicate 2) 94.80%; (replicate 3) 89.39%; (replicate 4) 97.54%; (replicate 5) 93.21%.

B8: I1784.60A (protein)
chain: MWNATPSEEPGFNLTLADLDWDASPGNDSLGDELLQLFPAPLLAGVTATCVALFVVGIAGNLLTMLVVSRFRELRTTTNLYLSSMAFSDLLIFLCMPLDLVRLWQYRPWNFGDLLCKLFQFVSESCTYATVLTITALSVERYFAICFPLRAKVVVTKGRVKLVIFVIWAVAFCSAGPAFVLVGVEHENGTDPWDTNECRPTEFAVRSGLLTVMVWVSSIFFFLPVFCLTVLYSLIGRKLWRRRRGDAVVGASLRDQNHKQTVKMLAVVVFAFILCWLPFHVGRYLFSKSFEPGSLEIAQISQYCNLVSFVLFYLSAAINPILYNIMSKKYRVAVFRLLGFEPFSQRKLSTLKDESSRAWTESSINT
modifications: SNAP tag labelled with SNAP-Lumi4-Tb; left off: SNAP, N-terminal, kept
For B8, the Cell-surface expression by setting is: (replicate 1) 94.94%; (replicate 2) 100.59%; (replicate 3) 91.58%; (replicate 4) 96.01%; (replicate 5) 89.87%.

B9: L1814.63A (protein)
chain: MWNATPSEEPGFNLTLADLDWDASPGNDSLGDELLQLFPAPLLAGVTATCVALFVVGIAGNLLTMLVVSRFRELRTTTNLYLSSMAFSDLLIFLCMPLDLVRLWQYRPWNFGDLLCKLFQFVSESCTYATVLTITALSVERYFAICFPLRAKVVVTKGRVKLVIFVIWAVAFCSAGPIFVAVGVEHENGTDPWDTNECRPTEFAVRSGLLTVMVWVSSIFFFLPVFCLTVLYSLIGRKLWRRRRGDAVVGASLRDQNHKQTVKMLAVVVFAFILCWLPFHVGRYLFSKSFEPGSLEIAQISQYCNLVSFVLFYLSAAINPILYNIMSKKYRVAVFRLLGFEPFSQRKLSTLKDESSRAWTESSINT
modifications: SNAP tag labelled with SNAP-Lumi4-Tb; left off: SNAP, N-terminal, kept
As to B9, the Cell-surface expression (replicate 1) is on record as 94.17%; the Cell-surface expression (replicate 2) worked out at 98.71%; the Cell-surface expression (replicate 3) worked out at 96.25%; the Cell-surface expression (replicate 4) is 95.38%; the Cell-surface expression (replicate 5) turned out to be 113.13%.
